The assay has as its target AcrA S273C (Escherichia coli) (UniProt P0AE06). Nature of the assay: cryo-EM structure.

On to “AcrA S273C (from UniProt P0AE06 25-397) (natural protein)”, for which the stoichiometry N (usually a count of units in the complex or per binding partner) was 6.

These data come from paper doi:10.1101/2025.02.18.638599.
